Laboratory results: PMC2722949 (Journal of molecular biology, 2009)
Where no end group is shown, it is not given here. [ ]: non-standard residue; d: D form. pY = N[C@@H](Cc1ccc(OP(=O)(O)O)cc1)C(=O)O

Key:
Test in all cases: NMR titration
Btk SH2 domain S371P = Btk SH2 domain S371P (UniProt Q06187 270-387, S371P)
Btk SH2 domain H364D = Btk SH2 domain H364D (UniProt Q06187 270-387, H364D)
[1] = target: Btk SH2 domain, wild type (UniProt Q06187 270-387)
[2] = target: Itk SH2 domain, wild type (mouse (the paper calls its residue numbers 'mouse numbering'))
[3] = target: Itk SH2 domain E308A/K309A double mutant (mouse (the paper calls its residue numbers 'mouse numbering'))

Sequence of Btk SH2 domain H364D (Q06187 270-387 H364D): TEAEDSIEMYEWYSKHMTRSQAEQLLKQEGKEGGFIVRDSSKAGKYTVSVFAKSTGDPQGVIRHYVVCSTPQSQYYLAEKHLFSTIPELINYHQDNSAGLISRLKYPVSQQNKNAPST
Sequence of Btk SH2 domain S371P (Q06187 270-387 S371P): as the sequence (Q06187 270-387 H364D) above, with D95H, S102P counted along it
Sequence of Btk SH2 domain, wild type (Q06187 270-387): as the sequence (Q06187 270-387 H364D) above, with D95H counted along it

Binder | Kd (Btk SH2 domain S371P) [µM] | Kd (Btk SH2 domain H364D) [µM] | Kd [1] [µM] | Kd [2] [µM] | Kd [3] [µM]
GDG[pY]EEISPLLL [Btk SH2 phospho-peptide ligand (GDGpYEEISPLLL)] | 600 ± 110 | 500 ± 200 | 450 ± 40 | – | –
AD[pY]EPP [phospho-SLP76 peptide (ADpYEPP)] | – | – | – | 380 | 480
